From patent US20240409645A1

T1: mouse IL-2Rβ (mouse) (UniProt P16297)
T1 sequence (looked up): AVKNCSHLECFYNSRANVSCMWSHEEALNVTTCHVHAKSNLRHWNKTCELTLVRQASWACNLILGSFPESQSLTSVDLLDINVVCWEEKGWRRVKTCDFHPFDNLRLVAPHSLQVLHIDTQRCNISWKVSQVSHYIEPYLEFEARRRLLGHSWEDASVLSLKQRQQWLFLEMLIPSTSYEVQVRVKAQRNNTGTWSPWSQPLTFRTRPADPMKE

B1: FJ1427_P035MP03C03 (VHH)
VHH: QVQLVESGGGLVQPGGSLRLSCAISGGTLDSYGIGWVRQAPGKQREGVSCMSRSDDRTYYADSVKGRFTISKDSAKNTVYLQMTSLKPEDTAVYYCAAVDAYGCSLVQPTTYDFWGLGTQVTVSS
B2: FJ1427 P035MP02E11 (VHH)
VHH: QVQLQESGGGLVQAGGSLRLSCAASGRTFSNYVMAWFRQAPGKEREFVGAITQTGRGTFYADSVEGRFTISRINDKNTVYLQMNSLKPEDTAVYYCSAPRSGRAGTRNQMDYEYWGQGTQVTVSS
B3: FJ1427 P035MP02E06 (VHH)
VHH: QVQLVESGGGSVQPGGSLRLSCAASGFTFSNYAMSWVRQAPGKGLEWVASITGFGRGTDYADSVKGRFTISRDNAEDTLYLQMNSLKPEDTAVYYCAKYSSSTYYPPTPARGRDYRGQGTQVTVSS
B4: FJ1427 P035MP02A10 (VHH)
VHH: QLQLVESGGGLVQTGTSLRLSCAASGHTSRINAMGWFRQFPGKEREFVAAISRNGGSTVYVDSVKGRFTISRDNAKSTVYLQMNSLKPEDTAVYYCTATDAVGWTTRWMTADFGFWGQGTQVTVSS
B5: FJ1427_P035MP03F08 (VHH)
VHH: EVQLVESGGGLVQTGGSLRLSCAASGGTFSRDAMAWFRQVPGKEREFVALISWSGATTNYADSVKGRFAISRDNGKNTVYLQMNRLKPADTAIYYCAADRRPMGSRSYFEPTEYDDWGQGTQVTVSS
B6: FJ1427 P035MP02D10 (VHH)
VHH: EVQLVESGGGLVQAGGSLRLSCAASGRTFSSDAKAWFRQAPGKEREFVAAITWAGRGTDYADSVKDRFTITRDNAKNMVYLQMSSLKPEDTAVYYCALNPTGVIGPGFRNSNRYDYWGQGTQVTVAS
B7: FJ1427 P035MP02H09 (VHH)
VHH: QLQLVESGGGLVQPGGSLRLSCAAAGRAIENYPVGWFRRAPGKEREFVAAITWISGSTLYADSVKGRFTISRDNAKNTVYLQMSSLKPEDTALYYCAAALKTITRGQNDYSYWGQGTQVTVSS
B8: FJ1427_P035MP02E10 (VHH)
VHH: QVQLVESGGGLVQAGGSLRLSCAAAGRAIENYPVGWFRRAPGKEREFVAAITWISGSTLYADSVKGRFTISRDNAKNTVYLQMSSLKPEDTALYYCAAALKTITRGQNDYSYWGQGTQVTVSS
B9: FJ1427_P035MP02B08 (VHH)
VHH: EVQLVESGGGLVQAGGSLRLSCAASGRAIENYPVGWFRQAPGKEREFVAAITWISGSTLYADSVKGRFTISRDNAKNTVYLQMSSLKPEDTALYYCAAALKTITRGQNDYSYWGQGTQVTVSS
B10: FJ1427 P035MP02G08 (VHH)
VHH: QVQLVESGGGLVQAGGSLRLSCTVSGDVFVRYTMAWFRQAPGKEREFVASVTDSGRTTEYVHSVRGRFTVSRDNAKNTVYLQMNNLKPEDTAVYYCAANTDYFRIRSLDANTWGQGTQVTVSS
B11: FJ1427_P035MP02G09 (VHH)
VHH: QVQLVESGGGLVQAGGSLRLSCTVSGDVFVRYTMAWFRQAPGKEREFVALVTDSGRTTEYVDSVKGRFTVSRDNAKNTVYLQMNNLKPEDTAVYYCAANTDYFRIRSLDANTWGQGTQVTVSS
B12: FJ1427_P035MP02F09 (VHH)
VHH: EVQLVESGGGLVQAGGSLRLSCAASGDVFVRYTMAWFRQAPGKEREFVASVTDSGRTTDYVDSVKGRFTVSRDNAKNTVYLQMNNLKPEDTAVYYCAANTDYFQIRSLEFNTWGQGTQVTVSS
B13: FJ1427 P035MP02H10 (VHH)
VHH: EVQLVESGGGLVQAGGSLRLSCAASGDVFVRYTMAWFRQAPGKEREFVASVTDSGRTTDYVDSVKGRFTVSRDNAKNTVYLQMNNLKPEDTAVYYCAANTDYFQIKSLDRNTWGQGTQVTVSS
B14: FJ1427_P035MP02C10 (VHH)
VHH: QVQLVESGGGLVQAGGSLRLACALSGDVFVRYTMAWFRQAPGKEREFVASVTDSGRTTDYVASVQGRFTVSRDNNKNTVYLQMNSLKPEDTAVYYCAANTDYFQIRSLDRNTWGQGTQVTVSS
B15: FJ1427_P035MP02F10 (VHH)
VHH: EVQLVESGGGLVQAGGSLRLSCVVSGDVFVRYTMAWFRQAPGKEREFVAVVTDSGRTTEYVDSVKGRFTVSRDNAKNTVYLQMNNLKPEDTAVYYCAANTDYFQIRSVDNNAWGQGTQVTVSS
B16: FJ1427 P035MP02D09 (VHH)
VHH: QVQLVESGGGLVQAGGSLRLACALSGDVFVRYTMAWFRQAPGKEREFVASVTDSGRTTDYVASVQGRFTVSRDNNKNTVYLQMNSLKPEDTAVYYCAANTDYFQIRSLDRNTWGQGTQVTVSS
B17: FJ1427_P035MP02B09 (VHH)
VHH: EVQLVESGGGLVQAGGSLRLSCAASGRTFSTTEMGWFRQAPGKEREFVAAITWTGRGTMYAESVEGRFTISRENAKNMVYLQMNSLKPEDTAIYYCAAARRGRAAVRSEGGYDFWGQGTQVTVSS
B18: FJ1427_P035MP02A11 (VHH)
VHH: EVQLVESGGGLVQAGGSLRLSCAASGRTFSTTEMGWFRQAPGKEREFVAAITWTGRGTMYAESVEGRFTISRENAKNMVYLQMNSLKPEDTAIYYCAAARRGRAAVRSEGGYDFWGQGTQATVSS
B19: FJ1427_P035MP02G10 (VHH)
VHH: QVQLVESGGGLVQAGGSLRLSCAASGRTFSTTEMGWFRQAPGKEREFVAAITWTGRGTMYAESVEGRFTISRENAKNMVYLQMNSLKPEDTAIYYCAAARRGRAAVRSEGGYDFWGQGTQVTVSS
B20: FJ1427_P035MP02B10 (VHH)
VHH: QVQLVESGGGLVEAGGSLRLSCAASGRAFNNFPMGWFRQAPGKEREFVAAITWISGSTLYADSVKGRFTISRDKSKNTVYLQMSGLKPEDTALYYCAAALKTITRGQHDYTYWGQGTQVTVSS
B21: FJ1427 P035MP02C03 (VHH)
VHH: EVQLVESGGGLVQTGGSLRLSCAASGSQFINDVMGWYRQVPGKQRELVADMDDTGSTEYADSVKGRFTILRDSVKNTAYLQMSNLKPEDTGVYYCKAGLWIKGRHFDYWGQGTQVTVSS
B22: FJ1427_P035MP02C09 (VHH)
VHH: QVQLQESGGGLVQAGGSLRLSCVASGSVSSINGMAWYRQGADNQRVLVAAISRVGNTAYGDSVKGRFTISRQNARNTVYLQMNSLKPEDTAVYYCNADSWGGDDYWGQGTQVTVSS
B23: FJ1427_P035MP02H08 (VHH)
VHH: EVQLVESGGGLVQAGDSLRISCAASGRIFSNYAMGWFRQAPGKETEFVAGITHLTSTTHYADSVKGRFTISRDNAKNTMHLQMNNLKPEDTALYYCAADRNIKITADWSYWGQGTQVTVAS
B24: FJ1427 P035MP02D11 (VHH)
VHH: QVQLQESGGGLVQAGDSLRISCAASGRIFSNYAMGWFRQAPGKETEFVAGITHLTSTTHYADSVKGRFTISRDNAKNTMHLQMNNLKPEDTALYYCAADRNIKITADWSYWGQGTQVTVAS

molecular target: T1, mouse IL-2Rβ (mouse); assay: P.E. ELISA, coated protein

Question: For B1, which P.E. binding ELISA OD is on record?
Answer: 0.048 OD450 nm

Question: For B2, which P.E. binding ELISA OD is on record?
Answer: 0.048 OD450 nm

Question: Which P.E. binding ELISA OD does the source give for B3 here?
Answer: 0.048 OD450 nm

Question: B4 was tested. Which P.E. binding ELISA OD did it give?
Answer: 0.047 OD450 nm

Question: How did the P.E. binding ELISA OD turn out when B5 was run?
Answer: 0.049 OD450 nm

Question: For B6, which P.E. binding ELISA OD is on record?
Answer: 0.047 OD450 nm

Question: B7 was tested. Which P.E. binding ELISA OD did it give?
Answer: 0.049 OD450 nm

Question: With B8 as the binder, how does the P.E. binding ELISA OD read?
Answer: 0.047 OD450 nm

Question: For B9, which P.E. binding ELISA OD is on record?
Answer: 0.048 OD450 nm

Question: With B10 as the binder, how does the P.E. binding ELISA OD read?
Answer: 0.055 OD450 nm

Question: Which P.E. binding ELISA OD does the source give for B11 here?
Answer: 0.066 OD450 nm

Question: With B12 as the binder, how does the P.E. binding ELISA OD read?
Answer: 0.051 OD450 nm

Question: How did the P.E. binding ELISA OD turn out when B13 was run?
Answer: 0.051 OD450 nm

Question: Which P.E. binding ELISA OD does the source give for B14 here?
Answer: 0.05 OD450 nm

Question: How did the P.E. binding ELISA OD turn out when B15 was run?
Answer: 0.051 OD450 nm

Question: How did the P.E. binding ELISA OD turn out when B16 was run?
Answer: 0.056 OD450 nm

Question: B17 was tested. Which P.E. binding ELISA OD did it give?
Answer: 0.047 OD450 nm

Question: For B18, which P.E. binding ELISA OD is on record?
Answer: 0.047 OD450 nm

Question: B19 was tested. Which P.E. binding ELISA OD did it give?
Answer: 0.048 OD450 nm

Question: With B20 as the binder, how does the P.E. binding ELISA OD read?
Answer: 0.047 OD450 nm

Question: B21 was tested. Which P.E. binding ELISA OD did it give?
Answer: 0.047 OD450 nm

Question: With B22 as the binder, how does the P.E. binding ELISA OD read?
Answer: 0.047 OD450 nm

Question: B23 was tested. Which P.E. binding ELISA OD did it give?
Answer: 0.049 OD450 nm

Question: Which P.E. binding ELISA OD does the source give for B24 here?
Answer: 0.047 OD450 nm
